# Experimental data as given in patent publication US7977317B2, “Compositions and methods for modulating blood-brain barrier transport” (Raptor Pharmaceutical Inc., priority 2001, dated 2011).
# B1: p97: recombinant human melanotransferrin (p97), provided by Synapse Technologies (protein, UniProt P08582 20-709, looked up)
# Melanotransferrin: GMEVRWCATSDPEQHKCGNMSEAFREAGIQPSLLCVRGTSADHCVQLIAAQEADAITLDGGAIYEAGKEHGLKPVVGEVYDQEVGTSYYAVAVVRRSSHVTIDTLKGVKSCHTGINRTVGWNVPVGYLVESGRLSVMGCDVLKAVSDYFGGSCVPGAGETSYSESLCRLCRGDSSGEGVCDKSPLERYYDYSGAFRCLAEGAGDVAFVKHSTVLENTDGKTLPSWGQALLSQDFELLCRDGSRADVTEWRQCHLARVPAHAVVVRADTDGGLIFRLLNEGQRLFSHEGSSFQMFSSEAYGQKDLLFKDSTSELVPIATQTYEAWLGHEYLHAMKGLLCDPNRLPPYLRWCVLSTPEIQKCGDMAVAFRRQRLKPEIQCVSAKSPQHCMERIQAEQVDAVTLSGEDIYTAGKTYGLVPAAGEHYAPEDSSNSYYVVAVVRRDSSHAFTLDELRGKRSCHAGFGSPAGWDVPVGALIQRGFIRPKDCDVLTAVSEFFNASCVPVNNPKNYPSSLCALCVGDEQGRNKCVGNSQERYYGYRGAFRCLVENAGDVAFVRHTTVFDNTNGHNSEPWAAELRSEDYELLCPNGARAEVSQFAACNLAQIPPHAVMVRPDTNIFTVYGLLDKAQDLFGDDHNKNGFKMFDSSNYHGQDLLFKDATVRAVPVGEKTTYRGWLGLDYVAALEGMSSQQC
# B2: lactoferrin: lactoferrin (Lf), LRP ligand used as competitor (protein, UniProt P02788 20-710, looked up)
# Lactotransferrin: GRRRSVQWCAVSQPEATKCFQWQRNMRKVRGPPVSCIKRDSPIQCIQAIAENRADAVTLDGGFIYEAGLAPYKLRPVAAEVYGTERQPRTHYYAVAVVKKGGSFQLNELQGLKSCHTGLRRTAGWNVPIGTLRPFLNWTGPPEPIEAAVARFFSASCVPGADKGQFPNLCRLCAGTGENKCAFSSQEPYFSYSGAFKCLRDGAGDVAFIRESTVFEDLSDEAERDEYELLCPDNTRKPVDKFKDCHLARVPSHAVVARSVNGKEDAIWNLLRQAQEKFGKDKSPKFQLFGSPSGQKDLLFKDSAIGFSRVPPRIDSGLYLGSGYFTAIQNLRKSEEEVAARRARVVWCAVGEQELRKCNQWSGLSEGSVTCSSASTTEDCIALVLKGEADAMSLDGGYVYTAGKCGLVPVLAENYKSQQSSDPDPNCVDRPVEGYLAVAVVRRSDTSLTWNSVKGKKSCHTAVDRTAGWNIPMGLLFNQTGSCKFDEYFSQSCAPGSDPRSNLCALCIGDEQGENKCVPNSNERYYGYTGAFRCLAENAGDVAFVKDVTVLQNTDGNNNEAWAKDLKLADFALLCLDGKRKPVTEARSCHLAMAPNHAVVSRMDKVERLKQVLLHQQAKFGRNGSDCPDKFCLFQSETKNLLFNDNTECLARLHGKTTYEKYLGPQYVAGITNLKKCSTSPLLEACEFLRK
# Assays:
# BBCEC monolayers = test: Sucrose permeability of BBCEC monolayers (in vitro BBB model) in the presence of p97; type: cell-based, bovine
# Procedure: FIG. 2. Effect of p97 (1 μm) on sucrose permeability with BBCECs that were preincubated for 2 hrs at 37° C. The effect of p97 at 1 μM on sucrose permeability of the in vitro BBB model was tested. The permeability coefficient (Pe) for sucrose was calculated as previously described (Dehouck, et al., J. Neurochem., 58:1790-179 (1992)) using filters coated or non-coated with BBCE cells. Briefly, coated or non-coated filters with BBCE cells were transferred to 6-well plates containing 2 ml of Ringer/Hepes per well (basolateral compartment) for 2 hrs at 37° C. In each apical (i.e., luminal) chamber, the culture medium was replaced by 1 ml Ringer/Hepes containing labeled [^14C]-sucrose. […] At the end of the experiments, amounts of the radiotracers in the basolateral (i.e., abluminal) compartment were measured in a liquid scintillation counter. The permeability coefficient (Pe) was calculated as described in FIG. 1.
# FIG. 14 illustrates the stability of p97 and integrity of the BBCEC monolayers following p97 transcytosis. […] The gels were dried and scanned to quantify the amount of intact p97 that crossed the BBCEC monolayers at 37° C. and 4° C. […]
# D. Sucrose permeability. The permeability coefficient for sucrose was measured to verify the endothelial permeability and the integrity and tightness of the BBCEC monolayers, as previously described, using uncoated filters or coated with endothelial cells. […]
# [1] = In situ brain perfusion with capillary depletion; type: in vivo; conditions: mice, 10 min perfusion
# Procedure: FIG. 11 examines the accumulation and transcytosis of p97. FIG. 11a, of [^125I]-p97, [^125I]-BSA and [^125I]-holo-transferrin one hour after i.v. injection. The radioactivity in brain was compared between the three compounds. (n=3); FIG. 11b, Accumulation of p97 and transferrin into the mouse brain parenchyma. In situ brain perfusion was performed with human [^125I]-p97 or [^125I]-holo-transferrin at a final concentration of 10 nM via a catheter inserted in the right common carotid artery. The volume of distribution (VD) of [^125I]-proteins were obtained in the whole brain homogenate (white bars), in brain capillaries (solid bars) and in brain parenchyma (hatched bars) after isolation of the right hemisphere and capillary depletion. Results were obtained for p97 (n=10) and for holo-transferrin (n=6); FIG. 11c, Transcytosis of p97 across BBCEC monolayers. Transcytosis experiments were performed 37° C. (open circles) and 4° C. (closed circles) with BBCEC monolayers. […] Apical-to-basal and basal-to-apical transport of [^125I]-p97 (25 nM) was measured for 2 hrs at 37° C. At the end of the experiment, [^125I]-p97 was assessed in the lower or upper chambers of each well by TCA precipitation (n=4).
# A. Brain uptake and in situ brain perfusion. […] The serum and brain samples were collected and the levels of radioactivity were measured. […]
# Megalin = Megalin (Homo sapiens, UniProt P98164); conditions: Tables 1-3; cited from earlier work
# Sequence of Megalin (P98164 26-4655, species assumed): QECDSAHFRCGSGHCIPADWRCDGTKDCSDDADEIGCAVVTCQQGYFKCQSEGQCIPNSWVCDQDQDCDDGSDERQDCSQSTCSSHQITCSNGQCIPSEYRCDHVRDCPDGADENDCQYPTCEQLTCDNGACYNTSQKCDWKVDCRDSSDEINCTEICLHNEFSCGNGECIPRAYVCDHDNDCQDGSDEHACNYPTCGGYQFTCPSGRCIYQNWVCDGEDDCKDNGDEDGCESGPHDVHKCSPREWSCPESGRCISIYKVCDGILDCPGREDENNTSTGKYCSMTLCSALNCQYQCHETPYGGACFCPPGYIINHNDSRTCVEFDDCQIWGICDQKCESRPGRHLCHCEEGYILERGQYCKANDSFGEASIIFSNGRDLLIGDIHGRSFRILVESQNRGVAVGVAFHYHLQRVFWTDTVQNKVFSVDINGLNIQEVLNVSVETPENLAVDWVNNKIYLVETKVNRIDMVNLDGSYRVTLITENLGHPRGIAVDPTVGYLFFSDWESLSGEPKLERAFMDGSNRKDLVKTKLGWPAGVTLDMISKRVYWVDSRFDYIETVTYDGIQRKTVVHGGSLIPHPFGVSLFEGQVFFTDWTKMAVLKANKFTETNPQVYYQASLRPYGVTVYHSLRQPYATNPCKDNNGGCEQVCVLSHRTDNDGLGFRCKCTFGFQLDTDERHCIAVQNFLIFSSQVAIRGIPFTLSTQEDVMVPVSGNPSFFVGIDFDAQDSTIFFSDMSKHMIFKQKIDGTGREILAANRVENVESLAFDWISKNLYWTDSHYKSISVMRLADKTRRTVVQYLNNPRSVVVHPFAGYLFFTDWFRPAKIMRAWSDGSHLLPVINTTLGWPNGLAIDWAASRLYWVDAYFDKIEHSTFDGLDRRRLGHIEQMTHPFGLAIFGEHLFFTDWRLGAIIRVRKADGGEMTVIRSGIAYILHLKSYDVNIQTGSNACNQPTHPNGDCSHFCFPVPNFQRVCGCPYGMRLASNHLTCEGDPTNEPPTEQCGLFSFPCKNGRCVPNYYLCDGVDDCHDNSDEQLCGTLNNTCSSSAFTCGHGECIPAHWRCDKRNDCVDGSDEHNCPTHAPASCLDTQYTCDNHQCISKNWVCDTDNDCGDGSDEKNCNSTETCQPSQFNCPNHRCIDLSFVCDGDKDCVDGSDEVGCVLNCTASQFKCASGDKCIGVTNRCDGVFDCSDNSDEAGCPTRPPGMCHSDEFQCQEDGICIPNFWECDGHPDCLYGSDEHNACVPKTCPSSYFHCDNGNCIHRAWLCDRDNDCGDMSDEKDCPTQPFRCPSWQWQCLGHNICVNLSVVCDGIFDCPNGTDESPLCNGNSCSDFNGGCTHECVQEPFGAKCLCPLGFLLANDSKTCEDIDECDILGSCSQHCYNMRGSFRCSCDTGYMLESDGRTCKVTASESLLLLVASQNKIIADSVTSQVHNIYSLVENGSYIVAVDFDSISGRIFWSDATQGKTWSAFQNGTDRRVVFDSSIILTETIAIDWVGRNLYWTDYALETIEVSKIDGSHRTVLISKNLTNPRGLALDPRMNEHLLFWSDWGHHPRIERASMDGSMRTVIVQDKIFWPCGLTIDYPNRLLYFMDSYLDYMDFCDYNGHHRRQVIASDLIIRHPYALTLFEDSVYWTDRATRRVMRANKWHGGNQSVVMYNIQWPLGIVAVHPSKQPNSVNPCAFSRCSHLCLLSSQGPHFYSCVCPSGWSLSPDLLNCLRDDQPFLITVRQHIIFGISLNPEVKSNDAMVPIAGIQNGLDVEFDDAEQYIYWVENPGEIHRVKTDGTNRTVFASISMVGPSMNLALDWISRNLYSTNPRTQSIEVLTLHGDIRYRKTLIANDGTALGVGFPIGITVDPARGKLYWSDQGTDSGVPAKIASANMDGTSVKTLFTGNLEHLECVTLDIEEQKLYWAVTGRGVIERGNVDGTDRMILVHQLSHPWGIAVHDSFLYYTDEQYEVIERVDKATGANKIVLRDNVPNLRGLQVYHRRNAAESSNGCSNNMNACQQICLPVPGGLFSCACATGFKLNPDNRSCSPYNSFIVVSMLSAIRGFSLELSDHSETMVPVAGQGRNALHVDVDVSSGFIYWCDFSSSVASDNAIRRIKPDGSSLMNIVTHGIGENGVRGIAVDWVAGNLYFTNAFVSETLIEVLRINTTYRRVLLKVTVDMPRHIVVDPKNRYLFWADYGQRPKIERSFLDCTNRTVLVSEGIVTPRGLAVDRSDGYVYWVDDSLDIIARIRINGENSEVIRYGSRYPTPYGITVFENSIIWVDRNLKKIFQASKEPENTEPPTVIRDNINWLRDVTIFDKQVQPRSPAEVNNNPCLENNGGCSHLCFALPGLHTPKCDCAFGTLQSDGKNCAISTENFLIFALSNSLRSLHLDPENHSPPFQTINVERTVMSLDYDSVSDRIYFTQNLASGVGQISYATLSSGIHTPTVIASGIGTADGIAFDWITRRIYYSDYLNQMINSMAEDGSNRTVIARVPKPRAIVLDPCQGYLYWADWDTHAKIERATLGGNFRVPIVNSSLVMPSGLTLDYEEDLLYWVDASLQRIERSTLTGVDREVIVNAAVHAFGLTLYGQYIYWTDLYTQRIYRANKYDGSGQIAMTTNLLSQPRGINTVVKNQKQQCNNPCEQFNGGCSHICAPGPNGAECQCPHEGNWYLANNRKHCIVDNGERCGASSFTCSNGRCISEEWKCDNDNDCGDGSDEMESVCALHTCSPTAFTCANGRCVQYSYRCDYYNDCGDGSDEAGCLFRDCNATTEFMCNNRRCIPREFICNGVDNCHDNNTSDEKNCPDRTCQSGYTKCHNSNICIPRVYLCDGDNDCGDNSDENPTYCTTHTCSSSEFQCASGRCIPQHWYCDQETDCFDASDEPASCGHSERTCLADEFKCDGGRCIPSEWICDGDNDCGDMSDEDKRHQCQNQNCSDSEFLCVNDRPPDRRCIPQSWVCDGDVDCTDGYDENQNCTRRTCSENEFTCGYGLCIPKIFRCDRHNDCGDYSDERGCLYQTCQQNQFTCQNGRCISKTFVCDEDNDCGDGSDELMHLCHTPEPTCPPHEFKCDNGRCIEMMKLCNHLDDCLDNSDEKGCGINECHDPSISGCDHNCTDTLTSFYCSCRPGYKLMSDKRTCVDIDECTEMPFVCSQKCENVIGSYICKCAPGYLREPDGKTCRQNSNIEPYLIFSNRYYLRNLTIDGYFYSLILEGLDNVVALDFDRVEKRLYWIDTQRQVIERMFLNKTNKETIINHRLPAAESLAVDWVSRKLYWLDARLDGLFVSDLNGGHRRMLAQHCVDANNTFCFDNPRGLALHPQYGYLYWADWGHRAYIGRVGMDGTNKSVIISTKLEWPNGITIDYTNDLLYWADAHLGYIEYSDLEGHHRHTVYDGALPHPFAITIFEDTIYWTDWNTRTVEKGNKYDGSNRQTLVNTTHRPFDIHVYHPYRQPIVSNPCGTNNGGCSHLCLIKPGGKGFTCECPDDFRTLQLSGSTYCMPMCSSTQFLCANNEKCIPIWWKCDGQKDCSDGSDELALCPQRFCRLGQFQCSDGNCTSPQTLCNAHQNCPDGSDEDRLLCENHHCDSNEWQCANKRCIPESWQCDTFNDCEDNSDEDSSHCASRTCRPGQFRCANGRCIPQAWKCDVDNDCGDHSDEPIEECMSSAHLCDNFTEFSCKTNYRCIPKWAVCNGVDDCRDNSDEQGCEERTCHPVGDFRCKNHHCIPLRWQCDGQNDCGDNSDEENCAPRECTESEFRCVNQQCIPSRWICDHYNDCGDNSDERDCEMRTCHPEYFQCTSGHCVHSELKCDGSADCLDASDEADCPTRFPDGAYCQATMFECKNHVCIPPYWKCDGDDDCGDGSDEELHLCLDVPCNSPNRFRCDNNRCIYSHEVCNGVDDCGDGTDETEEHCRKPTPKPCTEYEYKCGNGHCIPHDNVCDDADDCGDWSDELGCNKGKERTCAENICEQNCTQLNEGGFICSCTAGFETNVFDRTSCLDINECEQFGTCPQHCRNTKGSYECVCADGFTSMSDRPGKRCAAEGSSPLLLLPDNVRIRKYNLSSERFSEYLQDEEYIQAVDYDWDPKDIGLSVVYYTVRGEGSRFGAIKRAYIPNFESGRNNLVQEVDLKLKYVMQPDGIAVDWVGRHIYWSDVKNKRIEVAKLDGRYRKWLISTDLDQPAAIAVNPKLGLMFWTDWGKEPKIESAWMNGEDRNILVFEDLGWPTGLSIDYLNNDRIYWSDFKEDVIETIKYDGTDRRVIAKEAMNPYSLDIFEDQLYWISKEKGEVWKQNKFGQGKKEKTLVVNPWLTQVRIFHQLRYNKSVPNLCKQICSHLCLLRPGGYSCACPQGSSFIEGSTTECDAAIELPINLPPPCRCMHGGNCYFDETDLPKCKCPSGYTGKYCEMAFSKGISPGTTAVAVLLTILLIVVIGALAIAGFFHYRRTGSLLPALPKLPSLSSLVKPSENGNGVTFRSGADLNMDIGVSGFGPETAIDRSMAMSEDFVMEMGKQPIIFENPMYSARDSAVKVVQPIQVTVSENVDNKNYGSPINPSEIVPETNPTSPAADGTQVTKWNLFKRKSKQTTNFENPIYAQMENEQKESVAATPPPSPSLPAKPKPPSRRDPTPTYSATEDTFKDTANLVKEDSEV
Molecule,Change in sucrose permeability by p97 (BBCEC monolayers; 1 micromolar p97 (FIG. 2)),Clearance of sucrose in the presence of p97 (BBCEC monolayers; high concentration of p97 (FIG. 14c)),Apparent VD of p97 in brain parenchyma relative to transferrin [1],Apparent VD in the brain parenchyma ([1]; 10 nM [125I]-protein (FIG. 11b)),Binding to Megalin (Megalin)
B1,no significant change,No significant increase,8.8 fold,17.2 ml/100 g,–
B2,–,–,–,–,Yes
